Results taken from paper PMC7531507.

Tests used:
mouse GLP-1R (mouse) = mouse GLP-1R (mouse) (UniProt O35659)
[1] = target: human glucagon receptor (GCGR) (human) (UniProt P47871)
mouse GCGR (mouse) = mouse GCGR (mouse) (UniProt Q61606)
[2] = target: cynomolgus monkey GCGR (cynomolgus monkey)
[3] = target: cynomolgus monkey GLP-1R (cynomolgus monkey)
rat GCGR (rat) = rat GCGR (rat) (UniProt P30082)
rat GLP-1R (rat) = rat GLP-1R (rat) (UniProt P32301)
Chain of UniProt P32301 (P32301 22-463): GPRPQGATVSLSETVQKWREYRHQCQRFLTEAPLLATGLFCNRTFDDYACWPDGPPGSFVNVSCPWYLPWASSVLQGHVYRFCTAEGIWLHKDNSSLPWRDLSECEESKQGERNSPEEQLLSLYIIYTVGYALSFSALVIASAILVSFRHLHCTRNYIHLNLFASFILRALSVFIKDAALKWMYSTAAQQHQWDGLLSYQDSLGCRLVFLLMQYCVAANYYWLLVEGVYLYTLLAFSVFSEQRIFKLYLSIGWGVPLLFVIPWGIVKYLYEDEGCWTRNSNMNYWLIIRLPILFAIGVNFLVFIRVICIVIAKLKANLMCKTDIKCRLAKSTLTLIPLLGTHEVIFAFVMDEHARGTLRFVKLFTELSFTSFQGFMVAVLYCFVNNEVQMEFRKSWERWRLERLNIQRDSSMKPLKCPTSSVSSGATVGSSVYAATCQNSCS

Chain of UniProt Q61606 (Q61606 27-485): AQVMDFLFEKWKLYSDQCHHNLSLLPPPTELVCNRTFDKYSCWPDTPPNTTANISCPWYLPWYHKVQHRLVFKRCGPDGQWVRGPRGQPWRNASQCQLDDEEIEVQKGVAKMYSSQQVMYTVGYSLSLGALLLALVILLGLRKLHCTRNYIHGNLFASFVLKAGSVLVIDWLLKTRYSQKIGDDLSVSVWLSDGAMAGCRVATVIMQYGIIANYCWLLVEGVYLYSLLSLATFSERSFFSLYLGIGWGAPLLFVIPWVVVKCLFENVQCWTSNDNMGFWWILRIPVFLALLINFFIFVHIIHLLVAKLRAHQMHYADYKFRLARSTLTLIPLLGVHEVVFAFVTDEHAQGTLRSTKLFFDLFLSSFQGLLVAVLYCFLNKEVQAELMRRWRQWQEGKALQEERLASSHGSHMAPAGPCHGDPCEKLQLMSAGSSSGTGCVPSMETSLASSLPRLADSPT
Chain of UniProt O35659 (O35659 22-463): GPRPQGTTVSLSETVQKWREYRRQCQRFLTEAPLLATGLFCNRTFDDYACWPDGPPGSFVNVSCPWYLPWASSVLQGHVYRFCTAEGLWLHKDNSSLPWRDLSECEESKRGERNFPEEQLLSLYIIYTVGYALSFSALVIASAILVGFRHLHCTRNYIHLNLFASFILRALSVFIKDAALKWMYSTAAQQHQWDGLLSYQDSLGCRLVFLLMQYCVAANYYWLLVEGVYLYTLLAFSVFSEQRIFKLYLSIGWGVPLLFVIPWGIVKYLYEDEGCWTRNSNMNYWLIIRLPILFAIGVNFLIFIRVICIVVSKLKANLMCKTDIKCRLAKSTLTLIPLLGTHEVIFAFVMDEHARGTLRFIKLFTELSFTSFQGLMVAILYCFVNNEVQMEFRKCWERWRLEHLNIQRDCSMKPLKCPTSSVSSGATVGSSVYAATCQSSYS
Chain of UniProt P30082 (P30082 27-485): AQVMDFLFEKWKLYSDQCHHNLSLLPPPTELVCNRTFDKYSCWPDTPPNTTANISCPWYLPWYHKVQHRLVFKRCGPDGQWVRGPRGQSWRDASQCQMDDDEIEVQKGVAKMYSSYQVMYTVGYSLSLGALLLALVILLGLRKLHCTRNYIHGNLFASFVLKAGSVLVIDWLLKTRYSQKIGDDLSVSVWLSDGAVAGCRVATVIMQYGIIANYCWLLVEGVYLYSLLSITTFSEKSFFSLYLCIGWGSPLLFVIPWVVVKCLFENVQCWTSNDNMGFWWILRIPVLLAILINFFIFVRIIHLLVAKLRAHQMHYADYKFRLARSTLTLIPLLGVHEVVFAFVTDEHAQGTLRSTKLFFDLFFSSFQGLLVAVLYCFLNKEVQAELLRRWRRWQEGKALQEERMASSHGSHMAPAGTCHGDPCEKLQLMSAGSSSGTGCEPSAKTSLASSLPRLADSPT
Chain of UniProt P47871 (P47871 26-477): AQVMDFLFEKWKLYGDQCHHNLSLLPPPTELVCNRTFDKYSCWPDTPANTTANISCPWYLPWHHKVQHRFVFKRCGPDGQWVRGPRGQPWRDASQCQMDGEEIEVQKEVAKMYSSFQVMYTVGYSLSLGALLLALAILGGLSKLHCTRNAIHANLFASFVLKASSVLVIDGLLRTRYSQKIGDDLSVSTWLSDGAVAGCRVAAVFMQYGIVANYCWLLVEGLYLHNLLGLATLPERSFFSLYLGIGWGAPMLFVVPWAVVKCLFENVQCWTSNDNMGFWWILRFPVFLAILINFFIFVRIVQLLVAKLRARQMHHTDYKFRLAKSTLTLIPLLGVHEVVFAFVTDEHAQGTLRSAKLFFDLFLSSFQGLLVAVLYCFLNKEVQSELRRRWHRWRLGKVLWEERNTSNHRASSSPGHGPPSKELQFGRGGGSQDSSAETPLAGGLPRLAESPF

EC50 of cAMP in clonal HEK293 cells stably expressing mouse GLP-1R (mouse GLP-1R (mouse)): 1.9 nM | EC50 of cAMP in clonal HEK293 cells stably expressing human GCGR [1]: 3.01 nM | EC50 of cAMP in clonal HEK293 cells stably expressing mouse GCGR (mouse GCGR (mouse)): 6.31 nM | EC50 of cAMP in clonal HEK293 cells stably expressing cynomolgus monkey GCGR [2]: 0.49 nM | EC50 of cAMP in clonal HEK293 cells stably expressing cynomolgus monkey GLP-1R [3]: 0.8 nM | EC50 of cAMP in clonal HEK293 cells stably expressing rat GCGR (rat GCGR (rat)): 12.7 nM | EC50 of cAMP in clonal HEK293 cells stably expressing rat GLP-1R (rat GLP-1R (rat)): 0.98 nM
Substance: native oxyntomodulin (peptide)
